Data as given in US20180320179A1, “LANOSTEROL 14-ALPHA DEMETHYLASE (CYP51) NUCLEIC ACID MOLECULES THAT CONTROL PATHOGENS” (Dow AgroSciences LLC, priority 2017, published 2018).

B1: MgCyp51-T7: dsRNA tile of Zymoseptoria tritici Cyp51, 111 bp, location 1490-1600 (nucleic acid, listed as Zymoseptoria tritici)
chain: CGACGATGGTTCGCGATTTCAAGTTTTACAATGTGGATGGCAGCGACAACGTGGTGGGTACGGATTACAGCAGTTTGTTCAGCCGGCCGCTGTCGCCGGCAGTAGTAAAGT
modifications: long dsRNA tile, purified, chemistry not given here
B2: MgCyp51-T10: dsRNA tile of Zymoseptoria tritici Cyp51, 172 bp, location 345-516 (nucleic acid, listed as Zymoseptoria tritici)
chain: GGACGTCAACGCGGAGGAGATATACAGCCCGCTGACCACTCCTGTCTTTGGCAAGGATGTGGTTTATGATTGTCCCAATTCGAAGCTCATGGAGCAGAAGAAGTTCGTCAAGTACGGCCTCACAACCTCTGCCCTCCAGTCCTACGTGACCTTGATCGCCGCCGAGACCCGC
B3: MgCyp51-T3: dsRNA tile of Zymoseptoria tritici Cyp51, 230 bp, location 450-679 (nucleic acid, listed as Zymoseptoria tritici)
chain: CGTCAAGTACGGCCTCACAACCTCTGCCCTCCAGTCCTACGTGACCTTGATCGCCGCCGAGACCCGCCAGTTCTTCGACCGCAACAACCCTCATAAGAAGTTCGCATCGACCAGCGGCACGATCGATCTCCCACCAGCCCTCGCCGAACTTACGATCTATACTGCCAGCCGATCATTGCAAGGAAAGGAAGTCCGCGAGGGCTTCGACTCGTCTTTCGCGGACCTCTACC
B4: MgCyp51-T4: dsRNA tile of Zymoseptoria tritici Cyp51, 178 bp, location 647-824 (nucleic acid, listed as Zymoseptoria tritici)
chain: AGGGCTTCGACTCGTCTTTCGCGGACCTCTACCACTACCTCGATATGGGATTCACACCGATCAACTTTATGCTTCCGTGGGCGCCCCTTCCCCAGAACCGACGCCGCGATTATGCGCAGAAGAAGATGTCCGAGACATACATGTCGATCATTCAGAAGAGACGAGAGTCCAAAACGGG
B5: MgCyp51-T2: dsRNA tile of Zymoseptoria tritici Cyp51, 165 bp, location 48-212 (nucleic acid, listed as Zymoseptoria tritici)
chain: CCAGACCAGCCTCTGGAAACTTGTCGGACTTGGATTCCTCGCCTTCAGCACGCTCGCCATCCTCCTCAATGTCCTCTCACAACTTCTCTTCCGTGGCAAGTTGTCCGATCCGCCACTCGTATTCCACTGGGTGCCCTTCATCGGAAGCACCATCACATACGGCAT
B6: MgCyp51-T9: dsRNA tile of Zymoseptoria tritici Cyp51, 172 bp, location 1-172 (nucleic acid, listed as Zymoseptoria tritici)
chain: ATGGGTCTCCTCCAGGAAGTCCTCGCGCAGTTCGACGCGCAATTCGGCCAGACCAGCCTCTGGAAACTTGTCGGACTTGGATTCCTCGCCTTCAGCACGCTCGCCATCCTCCTCAATGTCCTCTCACAACTTCTCTTCCGTGGCAAGTTGTCCGATCCGCCACTCGTATTCC
modifications: double-stranded RNA
B7: MgCyp51-T1: dsRNA tile of Zymoseptoria tritici Cyp51, 232 bp, location 166-397 (nucleic acid, listed as Zymoseptoria tritici)
chain: GTATTCCACTGGGTGCCCTTCATCGGAAGCACCATCACATACGGCATCGACCCATACAAGTTCTTCTTCTCCTGTCGGGAAAAGTATGGAGATGTCTTTACATTCATCCTGCTGGGAAAGAAGACGACGGTGTGCTTGGGCACCAAGGGCAATGATTTTATTTTGAATGGAAAACTGAAGGACGTCAACGCGGAGGAGATATACAGCCCGCTGACCACTCCTGTCTTTGGCA
B8: MgCyp51-T11: dsRNA tile of Zymoseptoria tritici Cyp51, 172 bp, location 775-946 (nucleic acid, listed as Zymoseptoria tritici)
chain: TCCGAGACATACATGTCGATCATTCAGAAGAGACGAGAGTCCAAAACGGGCGAACATGAGGAAGACATGATCCACAACTTGATGCAGTGCAAATACAAGGACGGCAATGCCATTCCCGACAAGGAGATTGCTCATATGATGATTGCGCTGCTCATGGCCGGCCAGCACTCTT

The molecules below were run on Zymoseptoria tritici (SEPTTR-184) (assay: Cyp51 dsRNA tile (fragment) foliar application bioassay (Example 6)). Conditions: 1 day protectant; calculated from disease control.
Assay type: in vivo
Procedure: The 200 ppm concentration for each treatment was prepared by adding the calculated volume of the corresponding dsRNA solution in TE buffer. […] A non-target dsRNA control (YFP), a TE/phosphate buffer control, disease pressure control, and clean plant control were included.
These plants were inoculated with an aqueous spore suspension of Zymoseptoria tritici either prior to or after fungicidal treatments. After inoculation the plants were kept in 100% relative humidity to allow spores to germinate and infect the leaves. The plants were then transferred to a greenhouse set at 20° C. until disease developed.

Molecule | ED50 (ppm) SEPTTR-184 1DP [ppm] | ED80 (ppm) SEPTTR-184 1DP [ppm]
B1 | 3.125 | >200
B2 | <3.125 | >200
B3 | <3.125 | >200
B4 | <3.125 | 200
B5 | <3.125 | >200
B6 | <3.125 | >200
B7 | <3.125 | >200
B8 | <3.125 | >200

Same assay, conditions: 1 day protectant; rate 3.125 ppm; average of 2 trials

Molecule | Disease Control (%) SEPTTR-184 1DP [%]
B1 | 50
B2 | 58
B3 | 64
B4 | 53
B5 | 53
B6 | 53
B7 | 65
B8 | 63

Same assay, conditions: 1 day protectant; rate 12.5 ppm; average of 2 trials

Molecule | Disease Control (%) SEPTTR-184 1DP [%]
B1 | 64
B2 | 64
B3 | 72
B4 | 65
B5 | 67
B6 | 53
B7 | 68
B8 | 61

Same assay, conditions: 1 day protectant; rate 50 ppm; average of 2 trials

Molecule | Disease Control (%) SEPTTR-184 1DP [%]
B1 | 66
B2 | 73
B3 | 69
B4 | 61
B5 | 70
B6 | 57
B7 | 70
B8 | 58

Same assay, conditions: 1 day protectant; rate 200 ppm; average of 2 trials

Molecule | Disease Control (%) SEPTTR-184 1DP [%]
B1 | 70
B2 | 75
B3 | 74
B4 | 80
B5 | 75
B6 | 76
B7 | 77
B8 | 61

Same assay, conditions: 3 days curative; calculated from disease control

Molecule | ED50 (ppm) SEPTTR-184 3DC [ppm] | ED80 (ppm) SEPTTR-184 3DC [ppm]
B1 | 5.331 | >200
B2 | 32.692 | >200
B3 | <3.125 | >200
B4 | <3.125 | >200
B5 | <3.125 | 125
B6 | <3.125 | >200
B7 | <3.125 | >200
B8 | 12.500 | >200

Same assay, conditions: 3 days curative; rate 3.125 ppm; average of 2 trials

Molecule | Disease Control (%) SEPTTR-184 3DC [%]
B1 | 46
B2 | 31
B3 | 73
B4 | 59
B5 | 76
B6 | 52
B7 | 71
B8 | 47

Same assay, conditions: 3 days curative; rate 12.5 ppm; average of 2 trials

Molecule | Disease Control (%) SEPTTR-184 3DC [%]
B1 | 63
B2 | 43
B3 | 73
B4 | 52
B5 | 72
B6 | 46
B7 | 78
B8 | 50

Same assay, conditions: 3 days curative; rate 50 ppm; average of 2 trials

Molecule | Disease Control (%) SEPTTR-184 3DC [%]
B1 | 66
B2 | 56
B3 | 72
B4 | 67
B5 | 76
B6 | 65
B7 | 68
B8 | 55

Same assay, conditions: 3 days curative; rate 200 ppm; average of 2 trials

Molecule | Disease Control (%) SEPTTR-184 3DC [%]
B1 | 72
B2 | 58
B3 | 76
B4 | 75
B5 | 84
B6 | 72
B7 | 70
B8 | 42

Same assay, conditions: curative test

Molecule | curative activity against SEPTTR (ranking)
B5 | provided the best curative activity against SEPTTR

Same assay, conditions: fragments compared with each other

Molecule | level of control among the fragments (ranking)
B5 | provided the best level of control
